In general, Kd refers to the constant that tells how readily two partners part at equilibrium. Broadly, the koff is the first-order rate constant of dissociation. In general, kon refers to a measure of how fast the partners come together.

The target in one assay is T1, recombinant human PDL1 (human, UniProt Q9NZQ7 19-238, limits assumed).
T1 construct: SPR antigen; also called CD274; B7-H1
As to the kind of experiment: SPR. (In general: SPR reads the build-up and loss of mass on a sensor chip optically.)

The target of assay [1] is T2, recombinant cynomolgus PDL1 (cynomolgus monkey, UniProt G7PSE7 19-238).
T2 construct: also called cynom; PDL1
As to the kind of experiment: SPR.

Assay [2] addresses human PD-L1 on the cell surface (human, UniProt Q9NZQ7 19-290). As to the kind of experiment: cell-based or functional assay.
Another assay deals with T3, Fc-tagged human PDL2 (human, UniProt Q9BQ51 20-220, limits assumed).
T3 sequence (looked up): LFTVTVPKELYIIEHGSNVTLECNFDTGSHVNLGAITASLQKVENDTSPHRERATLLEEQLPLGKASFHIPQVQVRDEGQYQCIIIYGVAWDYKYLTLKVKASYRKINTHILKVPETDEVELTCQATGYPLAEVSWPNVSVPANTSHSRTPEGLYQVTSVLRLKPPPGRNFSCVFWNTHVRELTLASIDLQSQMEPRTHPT
As to the kind of experiment: SPR, Fc-tagged human PDL2 captured, scFv as analyte.

Assay [3] addresses T4, human LILRB2 on the cell surface (human, UniProt Q8N423 22-597). Nature of the assay: cell-based or functional assay.
Assay [4] has as its target T4, human LILRB2 on the cell surface. Nature of the assay: cell-based or functional assay. This is another data set of the same source.
Assay [5] deals with T5, LILRA1 on transiently transfected CHO cells (UniProt O75019 17-489, limits assumed).
T5 construct: whole, on cells; V5 tag at the N-terminus
As to the kind of experiment: CELISA, transiently transfected CHO cells.

Assay [6] concerns the target T6, LILRA2 on transiently transfected CHO cells (UniProt Q8N149 24-483).
T6 construct: whole, on cells; V5 tag at the N-terminus
As to the kind of experiment: CELISA, transiently transfected CHO cells.

Assay [7] deals with T7, LILRA3 on transiently transfected CHO cells (UniProt Q8N6C8 24-439).
T7 construct: whole, on cells; V5 tag at the N-terminus
Nature of the assay: CELISA, transiently transfected CHO cells.

Assay [8] concerns the target T8, LILRA4 on transiently transfected CHO cells (UniProt P59901 24-499).
T8 construct: whole, on cells; V5 tag at the N-terminus
As to the kind of experiment: CELISA, transiently transfected CHO cells.

For assay [9], the target named is T9, LILRA5 on transiently transfected CHO cells (UniProt A6NI73 42-299).
T9 construct: whole, on cells; V5 tag at the N-terminus
As to the kind of experiment: CELISA, transiently transfected CHO cells.

The target of assay [10] is T10, LILRA6 on transiently transfected CHO cells (UniProt Q6PI73 24-481).
T10 construct: whole, on cells; V5 tag at the N-terminus
Nature of the assay: CELISA, transiently transfected CHO cells.

Assay [11] deals with T11, LILRB1 on transiently transfected CHO cells (UniProt Q8NHL6 24-650).
T11 construct: whole, on cells; V5 tag at the N-terminus
Nature of the assay: CELISA, transiently transfected CHO cells.

Assay [12] concerns the target T12, LILRB3 on transiently transfected CHO cells (UniProt O75022 24-631, limits assumed).
T12 construct: whole, on cells; V5 tag at the N-terminus
Nature of the assay: CELISA, transiently transfected CHO cells.

Assay [13] addresses T13, LILRB4 on transiently transfected CHO cells (UniProt Q8NHJ6 22-448).
T13 construct: whole, on cells; V5 tag at the N-terminus
As to the kind of experiment: CELISA, transiently transfected CHO cells.

The target in assay [14] is T14, LILRB5 on transiently transfected CHO cells (UniProt O75023 24-590, limits assumed).
T14 construct: whole, on cells; V5 tag at the N-terminus
Nature of the assay: CELISA, transiently transfected CHO cells.

T2 sequence (G7PSE7 entry or part of it): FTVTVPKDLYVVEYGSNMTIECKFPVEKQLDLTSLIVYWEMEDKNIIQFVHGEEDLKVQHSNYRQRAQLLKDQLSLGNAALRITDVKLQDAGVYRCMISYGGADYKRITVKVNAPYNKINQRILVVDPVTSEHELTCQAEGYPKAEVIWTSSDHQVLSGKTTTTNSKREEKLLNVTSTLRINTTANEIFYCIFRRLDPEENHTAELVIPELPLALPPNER
T4 sequence (Q8N423 22-597): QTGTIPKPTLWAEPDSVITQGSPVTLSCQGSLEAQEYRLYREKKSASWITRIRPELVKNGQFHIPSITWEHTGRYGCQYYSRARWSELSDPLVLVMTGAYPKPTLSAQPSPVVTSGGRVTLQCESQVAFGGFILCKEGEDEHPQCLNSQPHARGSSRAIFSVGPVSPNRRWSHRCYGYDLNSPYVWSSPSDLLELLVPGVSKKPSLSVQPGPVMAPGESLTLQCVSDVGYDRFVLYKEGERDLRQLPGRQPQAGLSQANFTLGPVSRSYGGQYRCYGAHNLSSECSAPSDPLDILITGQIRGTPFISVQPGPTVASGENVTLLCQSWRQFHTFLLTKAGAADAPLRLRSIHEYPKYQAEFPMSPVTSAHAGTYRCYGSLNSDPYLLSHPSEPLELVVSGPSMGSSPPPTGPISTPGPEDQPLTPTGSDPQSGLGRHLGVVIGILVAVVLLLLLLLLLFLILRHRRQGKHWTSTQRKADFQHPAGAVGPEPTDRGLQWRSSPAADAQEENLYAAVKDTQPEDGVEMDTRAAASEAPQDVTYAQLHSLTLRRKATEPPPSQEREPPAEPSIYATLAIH
T6 sequence (Q8N149 24-483): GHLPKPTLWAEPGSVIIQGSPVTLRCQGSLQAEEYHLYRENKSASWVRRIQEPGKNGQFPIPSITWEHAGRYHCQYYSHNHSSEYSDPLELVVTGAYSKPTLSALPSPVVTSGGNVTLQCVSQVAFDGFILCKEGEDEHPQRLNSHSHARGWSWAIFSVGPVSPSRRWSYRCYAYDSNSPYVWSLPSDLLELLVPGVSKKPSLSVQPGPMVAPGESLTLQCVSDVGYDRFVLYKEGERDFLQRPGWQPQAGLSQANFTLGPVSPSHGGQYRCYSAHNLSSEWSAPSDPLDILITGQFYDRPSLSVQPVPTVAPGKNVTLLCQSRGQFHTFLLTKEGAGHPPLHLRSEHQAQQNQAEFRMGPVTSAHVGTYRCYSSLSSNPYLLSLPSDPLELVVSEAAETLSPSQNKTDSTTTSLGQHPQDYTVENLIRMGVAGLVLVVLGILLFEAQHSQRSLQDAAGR
T10 sequence (Q6PI73 24-481): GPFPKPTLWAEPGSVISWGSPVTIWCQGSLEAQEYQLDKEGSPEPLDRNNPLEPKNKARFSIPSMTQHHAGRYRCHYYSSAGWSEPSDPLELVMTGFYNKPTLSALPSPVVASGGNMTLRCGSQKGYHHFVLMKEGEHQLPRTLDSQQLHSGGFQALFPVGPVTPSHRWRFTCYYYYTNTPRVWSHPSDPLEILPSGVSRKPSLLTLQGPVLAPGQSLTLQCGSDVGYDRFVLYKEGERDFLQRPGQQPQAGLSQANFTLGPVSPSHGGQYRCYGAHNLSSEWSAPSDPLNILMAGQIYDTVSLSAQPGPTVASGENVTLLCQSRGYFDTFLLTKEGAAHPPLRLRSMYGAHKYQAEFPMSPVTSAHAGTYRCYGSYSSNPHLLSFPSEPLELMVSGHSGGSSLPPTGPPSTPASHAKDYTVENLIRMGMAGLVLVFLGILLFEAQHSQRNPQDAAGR
T5 sequence (O75019 17-489 limits assumed): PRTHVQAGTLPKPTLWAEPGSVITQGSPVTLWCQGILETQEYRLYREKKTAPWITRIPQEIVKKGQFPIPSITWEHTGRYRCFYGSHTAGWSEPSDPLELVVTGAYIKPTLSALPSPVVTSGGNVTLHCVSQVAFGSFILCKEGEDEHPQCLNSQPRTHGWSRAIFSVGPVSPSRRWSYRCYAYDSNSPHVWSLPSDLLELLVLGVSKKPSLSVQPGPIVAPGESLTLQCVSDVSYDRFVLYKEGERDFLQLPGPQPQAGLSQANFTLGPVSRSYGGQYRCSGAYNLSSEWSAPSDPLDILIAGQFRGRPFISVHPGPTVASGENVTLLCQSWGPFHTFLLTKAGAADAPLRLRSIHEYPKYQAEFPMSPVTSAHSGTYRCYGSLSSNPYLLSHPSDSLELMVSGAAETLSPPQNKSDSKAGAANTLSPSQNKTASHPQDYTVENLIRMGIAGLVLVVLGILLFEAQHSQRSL
T7 sequence (Q8N6C8 24-439): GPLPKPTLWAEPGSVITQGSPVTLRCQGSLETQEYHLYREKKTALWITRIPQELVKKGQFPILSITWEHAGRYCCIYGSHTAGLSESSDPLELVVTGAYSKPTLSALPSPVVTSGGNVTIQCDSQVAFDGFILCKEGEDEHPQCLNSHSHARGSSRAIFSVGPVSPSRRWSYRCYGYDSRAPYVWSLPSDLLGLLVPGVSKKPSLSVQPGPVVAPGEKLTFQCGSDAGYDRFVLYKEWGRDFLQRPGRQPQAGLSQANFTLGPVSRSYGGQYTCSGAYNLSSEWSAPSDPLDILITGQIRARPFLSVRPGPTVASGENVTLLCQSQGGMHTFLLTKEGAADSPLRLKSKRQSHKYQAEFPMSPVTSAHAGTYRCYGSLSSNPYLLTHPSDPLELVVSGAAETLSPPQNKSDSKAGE
T8 sequence (P59901 24-499): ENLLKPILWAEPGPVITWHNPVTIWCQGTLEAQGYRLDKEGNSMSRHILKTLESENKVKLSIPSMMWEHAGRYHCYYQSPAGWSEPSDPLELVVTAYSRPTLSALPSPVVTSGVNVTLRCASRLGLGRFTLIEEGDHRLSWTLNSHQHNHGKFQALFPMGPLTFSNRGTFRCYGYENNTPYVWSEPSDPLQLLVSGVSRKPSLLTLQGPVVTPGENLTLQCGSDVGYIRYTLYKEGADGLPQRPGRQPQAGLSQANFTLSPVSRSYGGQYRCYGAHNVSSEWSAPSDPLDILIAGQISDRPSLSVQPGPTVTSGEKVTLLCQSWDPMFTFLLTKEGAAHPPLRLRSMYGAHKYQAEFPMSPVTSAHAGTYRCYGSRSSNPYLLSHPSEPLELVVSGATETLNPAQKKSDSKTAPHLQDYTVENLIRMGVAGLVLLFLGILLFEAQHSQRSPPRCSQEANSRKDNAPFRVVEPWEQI
T11 sequence (Q8NHL6 24-650): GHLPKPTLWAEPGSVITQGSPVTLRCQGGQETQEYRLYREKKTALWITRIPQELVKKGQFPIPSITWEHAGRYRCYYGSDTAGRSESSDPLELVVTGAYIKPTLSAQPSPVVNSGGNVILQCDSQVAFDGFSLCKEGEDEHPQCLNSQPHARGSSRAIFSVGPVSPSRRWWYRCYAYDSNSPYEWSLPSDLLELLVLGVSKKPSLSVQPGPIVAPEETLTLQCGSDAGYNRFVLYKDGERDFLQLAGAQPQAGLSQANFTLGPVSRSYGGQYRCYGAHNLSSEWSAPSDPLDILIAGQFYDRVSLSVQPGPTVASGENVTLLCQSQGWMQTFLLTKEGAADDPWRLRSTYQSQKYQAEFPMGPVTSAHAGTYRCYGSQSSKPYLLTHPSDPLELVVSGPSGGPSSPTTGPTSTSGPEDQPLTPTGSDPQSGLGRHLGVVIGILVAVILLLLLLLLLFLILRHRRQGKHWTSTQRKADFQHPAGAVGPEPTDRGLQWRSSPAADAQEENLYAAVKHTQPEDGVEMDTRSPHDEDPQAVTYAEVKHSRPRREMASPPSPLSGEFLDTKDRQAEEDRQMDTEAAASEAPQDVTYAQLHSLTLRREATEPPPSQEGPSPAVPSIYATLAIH
T9 sequence (A6NI73 42-299): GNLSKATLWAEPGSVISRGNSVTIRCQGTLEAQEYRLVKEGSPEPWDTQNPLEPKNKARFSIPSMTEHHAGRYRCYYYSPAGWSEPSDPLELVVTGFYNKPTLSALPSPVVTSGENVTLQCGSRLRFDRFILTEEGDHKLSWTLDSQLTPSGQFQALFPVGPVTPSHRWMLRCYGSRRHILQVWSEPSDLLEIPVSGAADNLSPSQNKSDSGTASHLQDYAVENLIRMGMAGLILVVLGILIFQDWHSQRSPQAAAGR
T14 sequence (O75023 24-590 limits assumed): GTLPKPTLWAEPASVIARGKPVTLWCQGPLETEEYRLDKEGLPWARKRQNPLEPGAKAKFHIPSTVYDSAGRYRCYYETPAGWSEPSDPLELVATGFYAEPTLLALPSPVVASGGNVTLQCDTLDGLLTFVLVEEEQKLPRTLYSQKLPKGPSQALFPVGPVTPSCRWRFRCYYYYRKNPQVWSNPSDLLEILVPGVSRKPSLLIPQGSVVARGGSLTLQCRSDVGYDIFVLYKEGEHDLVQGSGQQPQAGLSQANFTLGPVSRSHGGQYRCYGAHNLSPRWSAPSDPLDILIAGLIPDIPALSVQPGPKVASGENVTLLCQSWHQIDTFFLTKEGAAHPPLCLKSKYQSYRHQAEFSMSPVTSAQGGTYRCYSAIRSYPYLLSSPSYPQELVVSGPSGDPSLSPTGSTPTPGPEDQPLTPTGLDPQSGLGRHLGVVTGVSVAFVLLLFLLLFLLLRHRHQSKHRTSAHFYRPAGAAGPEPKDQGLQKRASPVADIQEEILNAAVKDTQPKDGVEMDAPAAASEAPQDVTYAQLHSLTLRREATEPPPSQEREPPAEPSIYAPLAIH

B1: PRO1347 (scFv)
scFv: DIQMTQSPASLSASVGDRVTITCQASQSIGTYLAWYQQKPGKPPKLLIYRAFILASGVPSRFSGSGSGTDFTLTISSLQPEDFATYYCQSNFYSDSTTIGPNAFGTGTKVTVLGGGGGSGGGGSGGGGSGGGGSEVQLVESGGGLVQPGGSLRLSCAASGFSFNSDYWIYWVRQAPGKGLEWIACIYGGSSGNTQYASWAQGRFTISRDNSKNTVYLQMNSLRAEDTAVYFCARGYVDYGGATDLWGQGTLVTVSS
notes: anti-PDL1 scFv; also called 37-20-B03-sc09
B1: in the assay with recombinant human PDL1, the Kd was determined as 0.0109 nM, the koff amounted to 6.64e-05 s⁻¹ and the kon came to 7.38e+06 M⁻¹ s⁻¹. Further, in assay [1], the Kd is 0.0127 nM, the koff was determined as 8.77e-05 s⁻¹ and the kon is 6.88e+06 M⁻¹ s⁻¹. In assay [2], the “PDL1/PD-1 EC50 [nM], NFAT reporter gene assay” value was 0.28 nM and the “PDL1/PD-1 Max. inhibition (rel. to avelumab) [%]” value was found to be 100%. The binding result in the assay with Fc-tagged human PDL2 is reported as “no binding (tested: 180 nM)”.

B2: PRO4710 (antibody, human IgG4 S228P, kappa, V domains shown)
VH: QQLVESGGGLVQPGGSLRLSCAASGFSFTNNYYMCWVRQAPGKGLEWIACMLVGAWGNTYYASWANGRFTISKDNSKNTVYLQMNSLRAEDTAVYFCARARDYTWTLGGDPETSGFNLWGQGTLVTVSS
VL: DVQMTQSPSSLSASVGDRVTITCQASQSIGSNLAWYQQKPGKPPKLLIYKGGTLESGVPSRFSGSGSGTDFTLTISSLQPEDFATYYCQSTAGSSRSGNYGYVFGQGTKVEIKR
notes: anti-LILRB2 IgG4; also called 68-18-E11-sc07 IgG4; IgG4 variant of scFv PRO3744
On to B2, for which, in [3], the “CD86 EC50 [nM], re-polarization of M2 macrophages” value worked out at 0.119 nM. Moreover, the “CD163 EC50 [nM], re-polarization of M2 macrophages” value in assay [3] was 0.072 nM. Also, the “CD206 EC50 [nM], re-polarization of M2 macrophages” value in [3] turned out to be 0.203 nM. Besides, the “IL-1β EC50 [nM], LPS-driven cytokine secretion” value in assay [4] stood at 0.248 nM. The “IL-6 EC50 [nM], LPS-driven cytokine secretion” value in [4] is 0.153 nM. Besides, the “TNF-α EC50 [nM], LPS-driven cytokine secretion” value in assay [4] was 0.169 nM. The binding result in assay [5], in [6], in assay [7], in [8], in assay [9] and in [10] was “no binding (tested: up to 100 nM)” each time. Moreover, the binding result in assay [11], in [12], in assay [13] and in [14] was “no binding (tested: up to 100 nM)” each time.

(Values after patent EP4574844A1 (Numab Therapeutics AG, dated 2025).)
